According to patent US20090318535:

Molecular target: human BimEL (Bcl-2-Interacting Mediator of cell death, Extra Long isoform)

B1: human RSK1 (p90rsk/MAPKAP kinase-1) (protein)
chain: MEQDPKPPRLRLWALIPWLPRKQRPRISQTSLPVPGPGSGPQRDSDEGVLKEISITHHVKAGSEKADPSHFELLKVLGQGSFGKVFLVRKVTRPDSGHLYAMKVLKKATLKVRDRVRTKMERDILADVNHPFVVKLHYAFQTEGKLYLILDFLRGGDLFTRLSKEVMFTEEDVKFYLAELALGLDHLHSLGIIYRDLKPENILLDEEGHIKLTDFGLSKEAIDHEKKAYSFCGTVEYMAPEVVNRQGHSHSADWWSYGVLMFEMLTGSLPFQGKDRKETMTLILKAKLGMPQFLSTEAQSLLRALFKRNPANRLGSGPDGAEEIKRHVFYSTIDWNKLYRREIKPPFKPAVAQPDDTFYFDTEFTSRTPKDSPGIPPSAGAHQLFRGFSFVATGLMEDDGKPRAPQAPLHSVVQQLHGKNLVFSDGYVVKETIGVGSYSECKRCVHKATNMEYAVKVIDKSKRDPSEEIEILLRYGQHPNIITLKDVYDDGKHVYLVTELMRGGELLDKILRQKFFSEREASFVLHTIGKTVEYLHSQGVVHRDLKPSNILYVDESGNPECLRICDFGFAKQLRAENGLLMTPCYTANFVAPEVLKRQGYDEGCDIWSLGILLYTMLAGYTPFANGPSDTPEEILTRIGSGKFTLSGGNWNTVSETAKDLVSKMLHVDPHQRLTAKQVLQHPWVTQKDKLPQSQLSHQDLQLVKGAMAATYSALNSSKPTPQLKPIESSILAQRRVRKLPSTTL
in vitro kinase assay: phosphorylation of BimEL on serines 93/94/98: RSK1 phosphorylates BimEL in vitro on serines 93/94/98 (the degron serines)
